Data as given in publication PMC11214836, “ILF3 safeguards telomeres from aberrant homologous recombination as a telomeric R-loop reader”.

Target: T1, ILF3-GFP full-length (UniProt Q12906 1-894)
T1 sequence: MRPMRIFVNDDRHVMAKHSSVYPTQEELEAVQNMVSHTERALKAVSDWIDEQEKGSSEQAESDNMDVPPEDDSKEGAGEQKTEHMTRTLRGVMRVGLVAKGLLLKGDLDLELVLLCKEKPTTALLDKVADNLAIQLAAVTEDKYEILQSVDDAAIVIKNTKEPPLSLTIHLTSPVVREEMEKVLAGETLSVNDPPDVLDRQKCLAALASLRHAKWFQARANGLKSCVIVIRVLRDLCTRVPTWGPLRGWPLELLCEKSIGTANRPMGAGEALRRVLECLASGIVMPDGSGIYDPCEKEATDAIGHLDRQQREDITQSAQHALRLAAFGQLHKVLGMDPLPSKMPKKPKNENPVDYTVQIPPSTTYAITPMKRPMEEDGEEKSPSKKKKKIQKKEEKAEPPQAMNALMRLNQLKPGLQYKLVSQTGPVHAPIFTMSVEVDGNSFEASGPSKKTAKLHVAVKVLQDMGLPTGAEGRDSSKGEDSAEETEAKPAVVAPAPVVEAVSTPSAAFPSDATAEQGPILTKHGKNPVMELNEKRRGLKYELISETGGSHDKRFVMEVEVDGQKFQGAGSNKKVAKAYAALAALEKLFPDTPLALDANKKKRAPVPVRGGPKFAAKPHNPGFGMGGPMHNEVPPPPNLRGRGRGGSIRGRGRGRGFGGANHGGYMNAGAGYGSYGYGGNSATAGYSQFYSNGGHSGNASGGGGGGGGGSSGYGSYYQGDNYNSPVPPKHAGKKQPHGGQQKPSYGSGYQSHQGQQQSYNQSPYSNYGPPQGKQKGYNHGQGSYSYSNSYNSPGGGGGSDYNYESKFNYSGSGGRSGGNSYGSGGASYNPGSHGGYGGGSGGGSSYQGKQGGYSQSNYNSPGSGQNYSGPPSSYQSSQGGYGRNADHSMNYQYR
Test: MST; MST: 50 nM His-ILF3-GFP, oligo 0.4 nM-5 uM, 25 mM Tris-HCl pH 7.5, 100 mM NaCl, room temperature
Conditions: protein: recombinant, tags: His, blunt

B1: mutTERRA RNA:DNA hybrid (UUAGCC) (DNA:RNA)
RNA: AGGGUUAGCCUUAGCCUUAGCC
DNA: GGCTAAGGCTAAGGCTAACCCT
Question: Does B1 bind?
Answer: no binding
